This note sets out measurements from patent US8822420B2, “Peptides and aptamers thereof as specific modulators of mutant p53 function” (Universita Degli Studi di Trieste, priority 2008, dated 2014).

In test [1] the target is T1, p53 R175H (Homo sapiens, UniProt P04637, R175H).
T1 construct: expression of full-length point mutants (hereinafter identified also as mut-p53 or mutant p53); expressed in transfected cells; host or cells: H1299 (p53-null)
Nature of the test: Co-immunoprecipitation of EGFP-TNV-PAs with p53 R175H in H1299 cells. The test is classed as binding. As to conditions: H1299 cells co-transfected with p53 R175H and EGFP-TNV-PAs, IP anti-GFP.

Another test has as its target T2, p53 R273H (Homo sapiens, UniProt P04637, R273H).
T2 construct: expression of full-length point mutants (hereinafter identified also as mut-p53 or mutant p53); expressed in transfected cells; host or cells: H1299 (p53-null)
The test is described as follows: EGR1-Luc luciferase assay in H1299 cells, p53 R273H. As to conditions: peptide 1.6, 4, 20 μM. It counts as cell-based. As for the experimental part:
(§1) (a) The effect of PAs on mutant p53 transactivating activity was analyzed in MG63 cells transiently transfected with Myc-Luc reporter along with constructs expressing p53 D281G or empty vector and with p[…] vectors expressing PAs or control vectors pLPC-EGFP (EGFP) or p[…] (TNV). The promoter activity measured in each experiment was normalized to the value measured in the absence of mutant p53. RLU: Relative Luciferase Units. […] Expression of mutant p53 and PAs was analyzed by Western Blot with the indicated antibodies. (b) The effect of FsA79 peptide on the transactivation of EGR1 promoter by mutant p53 was analyzed in H1299 cells, transfected with EGR1-Luc reporter along with plasmids encoding either p53R175H (left) or p53R273H (right) and treated with increasing amounts of FsA79 peptide (1.6, 4, 20 μM). […] (c) The effect of PAs on p53 wt transcriptional activity was analyzed in H1299 cells transfected with p21-Luc reporter, wt p53-expressing vector or empty vector along with constructs expressing the EGFP-TNV-PAs or control vectors as in (a). […] (d) The effect of PAs on the transcriptional activity of TAp73α was analyzed as in (c). […] (e) The effect of PAs on p53 wt transcriptional activity was analyzed in H1299 cells transfected with Bax-Luc reporter, wt-p53 expressing vector or empty vector together with constructs expressing EGFP-TNV-PAs or control vectors as in FIG. 3(c). […]

The target of test [2] is T1, p53 R175H. Nature of the test: EGR1-Luc luciferase assay in H1299 cells, p53 R175H. It counts as cell-based. The following applies: peptide 1.6, 4, 20 μM. As for the experimental part: as §1
For test [3], the system named is Sk-Br-3 cells. Nature of the test: FACS analysis of DNA content (propidium iodide) of EGFP-positive Sk-Br-3 cells. The test is classed as cell-based. As for the experimental part:
(a) The apoptotic effect of PAs was analyzed in U20S (expressing p53 wt), H1299 (p53 null), Sk-Br-3 (expressing p53R175H) and MDA-MB-468 (expressing p53R273H) cells. Cells were transfected either with constructs expressing EGFP-TNV-PAs or with pLPCcontrol vector, harvested after 36 hours and stained with propidium iodide before analyzing the DNA content of EGFP-positive cells by flow cytometry. Histograms represent the average and the s.d. of the percentage of cells with sub-G1 DNA content measured in three independent experiments. […] At least 10000 EGFP-positive cells were analyzed in each acquisition. Histograms represent the average and s.d. of three independent experiments. […] Expression of the overexpressed EGFP-TNV-PAs as well as endogenous cleaved PARP (p85), p53R175H and the proapoptotic protein Bax was analyzed by Western Blot with the indicated antibodies. (d) Analysis of AnnexinV-PE-Cyan5 binding of MDA-MB-468 cells treated and analyzed as described in FIG. 4(c). […] FACS analysis of DNA content was then performed as in (a). Aliquots of cell lysates untreated (NT) or treated with 50 μM Etoposide (Eto) were analyzed by Western Blot. […] Cells were transfected with EGFP-PAs and then left untreated or treated with 100 μM PRIMA-1. After additional 20 hours cells were harvested and analyzed as in FIG. 4(a).
Sk-Br-3, MDA-MB-468, H1299 or U20S cells were seeded in 6 wells and transfected with pLPCEGFP-TNV16mers or pLPCEGFP-TNV or pLPC. For cell cycle analysis, cells were collected by trypsinization, recovering also the supernatants, and resuspended in PBS/0.1% Nonidet P-40 (NP-40) containing 2 μg/ml RnaseA. 10 min later, 10 μg/ml propidium iodide was added. Cells were analyzed by cytofluorimeter (FACScalibur) after additional 20 minutes.
Background: Flow cytometry measures light scatter and fluorescence of single cells or particles in a stream.

Test [4] relates to Sk-Br-3 cells. Nature of the test: PARP cleavage (p85) by Western Blot in Sk-Br-3 cells. The test is classed as cell-based. (In general: Immunoblotting shows a protein as a band on a membrane.)
Method: (a) The apoptotic effect of PAs was analyzed in U20S (expressing p53 wt), H1299 (p53 null), Sk-Br-3 (expressing p53R175H) and MDA-MB-468 (expressing p53R273H) cells. Cells were transfected either with constructs expressing EGFP-TNV-PAs or with pLPCcontrol vector, harvested after 36 hours and stained with propidium iodide before analyzing the DNA content of EGFP-positive cells by flow cytometry. Histograms represent the average and the s.d. of the percentage of cells with sub-G1 DNA content measured in three independent experiments. […] At least 10000 EGFP-positive cells were analyzed in each acquisition. Histograms represent the average and s.d. of three independent experiments. […] Expression of the overexpressed EGFP-TNV-PAs as well as endogenous cleaved PARP (p85), p53R175H and the proapoptotic protein Bax was analyzed by Western Blot with the indicated antibodies. […] FACS analysis of DNA content was then performed as in (a). Aliquots of cell lysates untreated (NT) or treated with 50 μM Etoposide (Eto) were analyzed by Western Blot. […] Cells were transfected with EGFP-PAs and then left untreated or treated with 100 μM PRIMA-1. After additional 20 hours cells were harvested and analyzed as in FIG. 4(a). […]
To specifically evaluate the effect on cells expressing the aptamers, propidium-iodide staining was measured only in the GFP positive population.
In test [5] the test system is Sk-Br-3 cells. Nature of the test: AnnexinV-PE-Cyan5 staining by flow cytometry, Sk-Br-3 cells. The following applies: Sk-Br-3, GFP positive cells, 36 hours after transfection. It counts as cell-based. As for the experimental part:
(§2) (a) The apoptotic effect of PAs was analyzed in U20S (expressing p53 wt), H1299 (p53 null), Sk-Br-3 (expressing p53R175H) and MDA-MB-468 (expressing p53R273H) cells. Cells were transfected either with constructs expressing EGFP-TNV-PAs or with pLPCcontrol vector, harvested after 36 hours and stained with propidium iodide before analyzing the DNA content of EGFP-positive cells by flow cytometry. Histograms represent the average and the s.d. of the percentage of cells with sub-G1 DNA content measured in three independent experiments. […] At least 10000 EGFP-positive cells were analyzed in each acquisition. Histograms represent the average and s.d. of three independent experiments. […] Expression of the overexpressed EGFP-TNV-PAs as well as endogenous cleaved PARP (p85), p53R175H and the proapoptotic protein Bax was analyzed by Western Blot with the indicated antibodies. (d) Analysis of AnnexinV-PE-Cyan5 binding of MDA-MB-468 cells treated and analyzed as described in FIG. 4(c). […] Aliquots of cell lysates untreated (NT) or treated with 50 μM Etoposide (Eto) were analyzed by Western Blot. […] After additional 20 hours cells were harvested and analyzed as in FIG. 4(a).
(§3) Sk-Br-3, MDA-MB-468, H1299 or U20S cells were seeded in 6 wells and transfected with pLPCEGFP-TNV16mers or pLPCEGFP-TNV or pLPC. […] Cells were analyzed by cytofluorimeter (FACScalibur) after additional 20 minutes.

Another test has as its system MDA-MB-468 cells. The test is described as follows: AnnexinV-PE-Cyan5 staining by flow cytometry, MDA-MB-468 cells. The following applies: MDA-MB-468, GFP positive cells, 36 hours after transfection. It counts as cell-based. As for the experimental part: as §2, §3
A further test has as its target T3, TAp73α (Homo sapiens, UniProt O15350).
T3 construct: expressed in transfected cells; host or cells: H1299
T3 sequence (O15350 1-636): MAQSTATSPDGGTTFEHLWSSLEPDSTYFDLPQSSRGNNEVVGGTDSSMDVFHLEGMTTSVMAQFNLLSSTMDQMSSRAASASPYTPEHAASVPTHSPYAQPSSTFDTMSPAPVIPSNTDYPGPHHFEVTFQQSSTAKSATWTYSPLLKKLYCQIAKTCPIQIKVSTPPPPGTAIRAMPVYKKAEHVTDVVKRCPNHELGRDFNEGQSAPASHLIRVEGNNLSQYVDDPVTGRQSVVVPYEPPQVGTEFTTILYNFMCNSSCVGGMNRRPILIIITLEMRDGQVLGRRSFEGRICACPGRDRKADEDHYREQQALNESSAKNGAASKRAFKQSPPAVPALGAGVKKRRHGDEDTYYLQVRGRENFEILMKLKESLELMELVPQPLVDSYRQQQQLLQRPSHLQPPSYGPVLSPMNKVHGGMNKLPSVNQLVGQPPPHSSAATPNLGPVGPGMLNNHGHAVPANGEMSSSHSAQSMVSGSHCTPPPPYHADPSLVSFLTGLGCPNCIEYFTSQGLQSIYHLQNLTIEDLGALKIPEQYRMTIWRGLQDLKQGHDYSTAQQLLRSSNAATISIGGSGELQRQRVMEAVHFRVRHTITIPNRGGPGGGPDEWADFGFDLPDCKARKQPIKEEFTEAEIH
The test is described as follows: Bax-Luc luciferase assay in H1299 cells, TAp73α. The test is classed as cell-based. As for the experimental part:
(§4) (a) The effect of PAs on mutant p53 transactivating activity was analyzed in MG63 cells transiently transfected with Myc-Luc reporter along with constructs expressing p53 D281G or empty vector and with pLPC-EGFP-TNV vectors expressing PAs or control vectors pLPC-EGFP (EGFP) or pLPC-EGFP-TNV (TNV). The promoter activity measured in each experiment was normalized to the value measured in the absence of mutant p53. RLU: Relative Luciferase Units. […] Expression of mutant p53 and PAs was analyzed by Western Blot with the indicated antibodies. (b) The effect of FsA79 peptide on the transactivation of EGR1 promoter by mutant p53 was analyzed in H1299 cells, transfected with EGR1-Luc reporter along with plasmids encoding either p53R175H (left) or p53R273H (right) and treated with increasing amounts of FsA79 peptide (1.6, 4, 20 μM). Luciferase assays were performed and represented as in (a). (c) The effect of PAs on p53 wt transcriptional activity was analyzed in H1299 cells transfected with p21-Luc reporter, wt p53-expressing vector or empty vector along with constructs expressing the EGFP-TNV-PAs or control vectors as in (a). Luciferase assays were performed and represented as in (a). (d) The effect of PAs on the transcriptional activity of TAp73α was analyzed as in (c). […] (f) Effect of PAs on TAp73a transcriptional activity on Bax-Luc reporter was analyzed as described in FIG. 3(d). […]

Another test has as its target T4, wild-type p53 (Homo sapiens, UniProt P04637).
T4 construct: expressed in transfected cells; host or cells: H1299
The test is described as follows: Bax-Luc luciferase assay in H1299 cells, wild-type p53. The test is classed as cell-based. As for the experimental part:
as §4

A further test deals with T5, p53 D281G (Homo sapiens, UniProt P04637, D281G).
T5 construct: expression of full-length point mutants (hereinafter identified also as mut-p53 or mutant p53); expressed in transfected cells; host or cells: MG63 (p53-null)
Nature of the test: c-Myc-Luc luciferase assay in MG63 cells. The test is classed as cell-based. As to conditions: EGFP-TNV-PAs, 36 hours. As for the experimental part:
as §1

No end group written: not given here. Ahx = NCCCCCC(=O)O

As for AKYCQCAAKVRVTAAM [A3], in the test with p53 R175H [1], the “binding to p53 R175H by co-immunoprecipitation” value (“binding to p53 R175H” for short) is “showed a stronger interaction with p53 R175H”.
As for “FAM-Ahx-peptide sA79 ({FAM-Ahx}-DVADWESCGEYWCYRV; cysteine pairing not given here) [FsA79, fluoresceinated version of sA79 peptide]”, in the test with p53 R273H, the “effect on transactivation of EGR1-Luc reporter by p53 R273H” value is on record as “inhibits the transactivation activity of both mutants”. Besides, the “effect on transactivation of EGR1-Luc reporter by p53 R175H” value with p53 R175H [2] is on record as “inhibits the transactivation activity of both mutants”.
Consider GPVVPRTQYMSLAFGW [A29], for which the “apoptotic response (sub-G1) compared with Etoposide treatment alone” value in the test on Sk-Br-3 cells [3] (Sk-Br-3) was “comparable to that observed upon drug treatment alone”. Moreover, the “sub-G1 peak compared with PRIMA-1” value in the test with Sk-Br-3 cells [3] (Sk-Br-3, PRIMA-1 100 μM for 20 hours) is recorded as “comparable to that induced by PRIMA-1”. In addition, the “cleaved p85 fragment of PARP-1” value in the test with Sk-Br-3 cells [4] is on record as “evident increase”. Moreover, the “binding to p53 R175H” value with p53 R175H [1] was “showed a stronger interaction with p53 R175H”. Besides, the AnnexinV positive cells entry in the test on Sk-Br-3 cells [5] and in the test on MDA-MB-468 cells was “approximately 30%” each time.
Regarding “IQITLTGWSARVTTSG [A60, 16mer peptide aptamer in thioredoxin scaffold; free peptide not synthetized]”, the “binding to p53 R175H” value in the test with p53 R175H [1] is recorded as “showed a stronger interaction with p53 R175H”. For the same substance, the “effect on transactivation activity of p73 on Bax-Luc reporter” value in the test with TAp73α is “all aptamers, but A60, do not significantly affect”. Moreover, the “effect on transactivation activity of wild-type p53 on Bax-Luc reporter” value in the test with wild-type p53 is recorded as “all aptamers, but A60, do not significantly affect”.
Consider “QRGLYCSCVTNQNAEV [B6, reference compound]”, for which, in the test with Sk-Br-3 cells [3] (Sk-Br-3 (p53 R175H), GFP positive population, 36 hours after transfection), the “sub-G1 peak (apoptotic cell death)” value is listed as “unable to induce apoptosis”. Besides, the “effect on transactivation activity of mutant p53 on c-Myc-Luc reporter” value with p53 D281G was “did not showed any effect”. For the same substance, the AnnexinV positive cells entry in the test with Sk-Br-3 cells [5] and in the test on MDA-MB-468 cells was “less than 15%” throughout.
For VWAESCDDCGEYWRYV [A79], the “binding to p53 R175H” value with p53 R175H [1] was “showed a stronger interaction with p53 R175H”.
